Laboratory results from the supplement of paper PMC10065799, “High-throughput profiling of sequence recognition by tyrosine kinases and SH2 domains using bacterial peptide display” (eLife, 2023).

How the values were obtained:
[1] = target: Jak2 (UniProt O60674); assay: phosphorylation enrichment, bacterial display (enrichment ratio); higher = better substrate or ligand; peptides without Tyr show the background
[2] = target: EPHB1 (UniProt P54762); assay: as above
[3] = test system: AncSZ; assay: as above
[4] = target: Hck (UniProt P08631); assay: as above
[5] = test system: Fer (mouse); assay: as above
[6] = target: FGFR1 (UniProt P11362); assay: as above
[7] = test system: c-Abl (mouse); assay: as above
[8] = target: EPHB2 (UniProt P29323); assay: as above
Chain of EPHB2 (P29323 whole entry, looked up): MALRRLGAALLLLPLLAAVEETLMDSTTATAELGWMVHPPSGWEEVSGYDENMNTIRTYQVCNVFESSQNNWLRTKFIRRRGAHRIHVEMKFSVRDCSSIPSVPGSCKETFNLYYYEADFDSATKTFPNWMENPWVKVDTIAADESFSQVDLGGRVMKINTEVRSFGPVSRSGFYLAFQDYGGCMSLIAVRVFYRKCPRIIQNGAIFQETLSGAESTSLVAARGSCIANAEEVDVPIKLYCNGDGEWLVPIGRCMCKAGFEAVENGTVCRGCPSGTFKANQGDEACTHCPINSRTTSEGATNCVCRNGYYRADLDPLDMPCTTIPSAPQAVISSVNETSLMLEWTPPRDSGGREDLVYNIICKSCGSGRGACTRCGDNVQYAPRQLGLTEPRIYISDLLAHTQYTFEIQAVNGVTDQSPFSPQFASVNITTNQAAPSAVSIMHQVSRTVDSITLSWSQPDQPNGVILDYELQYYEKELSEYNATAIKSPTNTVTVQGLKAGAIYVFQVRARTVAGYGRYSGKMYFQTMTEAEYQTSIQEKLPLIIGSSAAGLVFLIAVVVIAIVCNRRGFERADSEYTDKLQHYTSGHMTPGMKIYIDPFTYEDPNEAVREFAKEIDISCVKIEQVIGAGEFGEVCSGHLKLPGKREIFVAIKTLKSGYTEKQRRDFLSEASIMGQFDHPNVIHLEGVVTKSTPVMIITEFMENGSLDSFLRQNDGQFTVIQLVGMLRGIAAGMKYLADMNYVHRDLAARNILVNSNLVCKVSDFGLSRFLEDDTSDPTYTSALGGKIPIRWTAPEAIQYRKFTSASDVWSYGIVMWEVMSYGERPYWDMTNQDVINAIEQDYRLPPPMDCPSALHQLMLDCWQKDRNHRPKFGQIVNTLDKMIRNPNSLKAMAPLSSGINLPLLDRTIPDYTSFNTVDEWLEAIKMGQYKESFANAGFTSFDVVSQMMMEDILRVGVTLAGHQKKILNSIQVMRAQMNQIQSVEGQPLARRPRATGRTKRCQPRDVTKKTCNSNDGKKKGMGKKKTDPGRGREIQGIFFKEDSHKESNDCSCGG

[9] = test system: c-Src; assay: as above
[10] = target: MERTK (UniProt Q12866); assay: as above
Chain of MERTK (Q12866 whole entry, looked up): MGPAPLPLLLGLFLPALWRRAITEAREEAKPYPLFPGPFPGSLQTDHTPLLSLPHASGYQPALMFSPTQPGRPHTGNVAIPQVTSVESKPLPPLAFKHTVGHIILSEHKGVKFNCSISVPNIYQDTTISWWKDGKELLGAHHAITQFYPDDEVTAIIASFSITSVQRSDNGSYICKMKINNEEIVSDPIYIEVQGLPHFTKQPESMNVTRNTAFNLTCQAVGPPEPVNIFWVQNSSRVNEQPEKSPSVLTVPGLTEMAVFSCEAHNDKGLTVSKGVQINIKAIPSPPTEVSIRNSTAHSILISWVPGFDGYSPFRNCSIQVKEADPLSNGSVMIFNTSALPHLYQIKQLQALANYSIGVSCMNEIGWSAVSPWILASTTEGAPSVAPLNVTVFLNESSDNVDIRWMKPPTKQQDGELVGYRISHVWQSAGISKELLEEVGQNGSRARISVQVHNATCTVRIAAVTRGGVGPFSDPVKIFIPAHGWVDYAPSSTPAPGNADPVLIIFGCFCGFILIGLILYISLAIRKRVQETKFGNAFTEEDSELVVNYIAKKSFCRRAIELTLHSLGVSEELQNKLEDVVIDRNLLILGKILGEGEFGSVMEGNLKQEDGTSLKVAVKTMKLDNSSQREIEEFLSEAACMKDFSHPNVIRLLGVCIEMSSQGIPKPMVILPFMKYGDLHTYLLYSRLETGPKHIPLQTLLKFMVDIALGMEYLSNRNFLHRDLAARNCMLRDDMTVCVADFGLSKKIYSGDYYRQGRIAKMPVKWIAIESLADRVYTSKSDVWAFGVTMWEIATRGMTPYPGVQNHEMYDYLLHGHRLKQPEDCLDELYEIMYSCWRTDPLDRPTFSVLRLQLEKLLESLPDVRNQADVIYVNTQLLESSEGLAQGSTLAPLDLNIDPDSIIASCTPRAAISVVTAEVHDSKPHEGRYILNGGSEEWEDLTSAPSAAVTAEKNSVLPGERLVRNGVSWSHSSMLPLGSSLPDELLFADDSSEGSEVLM

[11] = target: Fyn (UniProt P06241); assay: as above
[12] = target: FGFR3 (UniProt P22607); assay: as above
[13] = target: Fes (UniProt P07332); assay: as above
Chain of Fes (P07332 whole entry, looked up): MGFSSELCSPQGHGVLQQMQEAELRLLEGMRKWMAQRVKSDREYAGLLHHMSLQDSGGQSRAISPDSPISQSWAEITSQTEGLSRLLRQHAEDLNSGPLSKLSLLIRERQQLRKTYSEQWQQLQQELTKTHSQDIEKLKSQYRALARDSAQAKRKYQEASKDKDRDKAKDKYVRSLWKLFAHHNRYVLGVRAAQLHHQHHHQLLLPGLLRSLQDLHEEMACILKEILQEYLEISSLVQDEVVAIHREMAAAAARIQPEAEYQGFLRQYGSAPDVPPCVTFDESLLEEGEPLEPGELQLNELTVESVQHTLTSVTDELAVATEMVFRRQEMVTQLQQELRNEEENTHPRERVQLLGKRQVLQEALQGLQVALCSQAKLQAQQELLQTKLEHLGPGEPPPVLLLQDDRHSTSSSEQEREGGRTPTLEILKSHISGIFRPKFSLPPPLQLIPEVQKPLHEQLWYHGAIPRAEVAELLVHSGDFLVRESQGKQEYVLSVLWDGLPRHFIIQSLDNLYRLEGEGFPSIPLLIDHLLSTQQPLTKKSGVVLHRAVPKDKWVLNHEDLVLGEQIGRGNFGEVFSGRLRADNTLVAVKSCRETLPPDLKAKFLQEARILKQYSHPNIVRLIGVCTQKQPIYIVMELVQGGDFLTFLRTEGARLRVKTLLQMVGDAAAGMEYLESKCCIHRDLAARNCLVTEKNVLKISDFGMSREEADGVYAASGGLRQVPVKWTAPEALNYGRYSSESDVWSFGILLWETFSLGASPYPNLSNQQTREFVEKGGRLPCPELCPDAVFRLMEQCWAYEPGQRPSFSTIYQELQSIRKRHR

[14] = target: Grb2 SH2 (UniProt P62993); assay: SH2 binding enrichment of the phosphorylated peptide, bacterial display (enrichment ratio); higher = better substrate or ligand; peptides without Tyr show the background
[15] = target: c-Src SH2; assay: as above
[16] = target: SHP2-C SH2; assay: as above
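Wherever SH2 binding enrichment of the phosphorylated peptide, bacterial display is given: peptide library displayed on the E. coli surface as eCPX fusions, selected cells deep-sequenced, score is each peptide's frequency after selection divided by its frequency in the input.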
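Wherever phosphorylation enrichment, bacterial display is given: 11-residue human phosphosite peptides and single-mutation variants displayed on the E. coli surface, counted by deep sequencing, each peptide's frequency after selection divided by its frequency in the unselected input library; frequency after pTyr selection over input frequency; kinase dosed for 20-30% of maximal phosphorylation in three min.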

Chain of Jak2 (O60674 whole entry, looked up): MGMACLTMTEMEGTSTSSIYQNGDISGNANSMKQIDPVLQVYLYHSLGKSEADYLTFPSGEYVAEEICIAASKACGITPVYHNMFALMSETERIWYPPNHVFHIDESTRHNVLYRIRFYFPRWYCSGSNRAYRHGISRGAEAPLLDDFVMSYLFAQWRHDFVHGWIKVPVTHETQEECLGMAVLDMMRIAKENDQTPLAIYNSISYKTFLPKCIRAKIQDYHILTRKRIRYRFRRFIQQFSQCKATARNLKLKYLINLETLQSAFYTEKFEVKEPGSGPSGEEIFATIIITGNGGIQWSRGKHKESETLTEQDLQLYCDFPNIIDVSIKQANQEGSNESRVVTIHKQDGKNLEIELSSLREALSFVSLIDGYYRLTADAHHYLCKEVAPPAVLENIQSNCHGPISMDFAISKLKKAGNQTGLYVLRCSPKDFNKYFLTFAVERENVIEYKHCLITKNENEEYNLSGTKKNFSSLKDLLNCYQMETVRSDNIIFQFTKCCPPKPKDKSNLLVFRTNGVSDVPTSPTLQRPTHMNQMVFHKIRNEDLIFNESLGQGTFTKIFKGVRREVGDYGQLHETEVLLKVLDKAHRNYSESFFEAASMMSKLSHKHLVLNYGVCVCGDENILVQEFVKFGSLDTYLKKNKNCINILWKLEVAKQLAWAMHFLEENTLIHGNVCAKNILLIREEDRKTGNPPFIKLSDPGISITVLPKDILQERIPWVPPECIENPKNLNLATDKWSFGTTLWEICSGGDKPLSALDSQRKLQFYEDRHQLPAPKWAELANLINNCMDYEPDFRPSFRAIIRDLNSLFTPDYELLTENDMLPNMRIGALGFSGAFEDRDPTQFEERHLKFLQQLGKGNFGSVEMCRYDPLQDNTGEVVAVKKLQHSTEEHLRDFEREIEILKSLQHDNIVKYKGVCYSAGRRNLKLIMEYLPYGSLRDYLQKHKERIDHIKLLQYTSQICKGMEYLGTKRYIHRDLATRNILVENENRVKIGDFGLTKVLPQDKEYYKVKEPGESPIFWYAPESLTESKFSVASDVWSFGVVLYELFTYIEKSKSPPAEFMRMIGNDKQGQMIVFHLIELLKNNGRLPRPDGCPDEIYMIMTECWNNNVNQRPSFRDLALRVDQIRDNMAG
Chain of EPHB1 (P54762 whole entry, looked up): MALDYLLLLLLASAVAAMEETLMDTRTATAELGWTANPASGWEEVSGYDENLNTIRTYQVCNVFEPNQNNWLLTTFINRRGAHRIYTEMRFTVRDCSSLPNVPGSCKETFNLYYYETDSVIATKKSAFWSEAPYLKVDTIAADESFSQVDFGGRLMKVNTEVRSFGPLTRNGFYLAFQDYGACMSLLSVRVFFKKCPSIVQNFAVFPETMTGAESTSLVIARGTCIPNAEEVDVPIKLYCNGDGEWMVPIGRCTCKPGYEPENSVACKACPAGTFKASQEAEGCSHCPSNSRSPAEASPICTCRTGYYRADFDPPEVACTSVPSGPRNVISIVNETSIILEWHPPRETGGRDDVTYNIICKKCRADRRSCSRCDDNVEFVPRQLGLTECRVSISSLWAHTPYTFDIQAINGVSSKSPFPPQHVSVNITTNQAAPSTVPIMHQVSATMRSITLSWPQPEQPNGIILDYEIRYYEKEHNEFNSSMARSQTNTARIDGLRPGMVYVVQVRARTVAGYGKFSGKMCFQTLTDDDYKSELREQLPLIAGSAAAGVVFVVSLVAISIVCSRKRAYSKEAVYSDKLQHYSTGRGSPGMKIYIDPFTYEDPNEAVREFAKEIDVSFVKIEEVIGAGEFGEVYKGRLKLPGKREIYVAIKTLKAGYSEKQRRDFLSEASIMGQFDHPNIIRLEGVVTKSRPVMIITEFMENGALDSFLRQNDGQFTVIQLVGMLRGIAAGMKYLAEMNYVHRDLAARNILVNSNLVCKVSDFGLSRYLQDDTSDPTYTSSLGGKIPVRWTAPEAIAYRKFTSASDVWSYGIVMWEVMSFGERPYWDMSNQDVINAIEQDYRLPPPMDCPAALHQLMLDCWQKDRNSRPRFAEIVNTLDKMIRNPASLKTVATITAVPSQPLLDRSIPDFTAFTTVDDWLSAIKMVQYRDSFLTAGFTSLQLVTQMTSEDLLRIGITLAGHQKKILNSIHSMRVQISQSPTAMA

SH2 binding enrichment [14]	SH2 binding enrichment [15]	SH2 binding enrichment [16]	Sequence	phosphorylation enrichment [1]	phosphorylation enrichment [2]	phosphorylation enrichment [3]	phosphorylation enrichment [4]	phosphorylation enrichment [5]	phosphorylation enrichment [6]	phosphorylation enrichment [7]	phosphorylation enrichment [8]	phosphorylation enrichment [9]	phosphorylation enrichment [10]	phosphorylation enrichment [11]	phosphorylation enrichment [12]	phosphorylation enrichment [13]
0.907	0.738	1.03	FFRCHYPLTTL [TNS4_Y644_R642C]	0.79	0.509	0.914	0.48	0.39	0.463	0.595	0.512	0.43	0.4	0.374	0.696	1.01
0.761	0.37	0.511	GGFTWYCDGKK [PROS1_Y266_C265W_YF]	1.2	0.651	1.08	0.389	0.438	0.432	0.928	0.605	0.299	0.29	0.328	0.833	1.23
1.09	0.607	0.752	RLGDLYKEEMR [VIM_Y150_E151K]	0.995	0.779	1.08	0.824	0.43	0.674	0.762	0.672	0.587	0.362	0.756	0.832	1.17
1.36	0.894	1.71	RHPLDYLRQYP [NARS2_Y138_E137D]	1.01	0.799	0.914	0.753	0.594	0.405	0.627	0.96	0.411	0.509	0.547	0.694	1.15
0.655	4.5	1.92	NLAAQYTTVGR [SGSH_Y240_D235N]	0.414	0.304	0.444	0.568	0.36	0.376	0.416	0.312	0.494	0.438	0.401	0.375	0.489
1.09	0.658	0.788	DDERGYRRVRC [GIGYF2_Y268_S273C]	0.834	0.519	0.75	0.483	0.513	0.533	0.647	0.551	0.426	0.438	0.529	0.562	0.882
0.722	0.496	0.746	FQHLRYIKQLG [SAMHD1_Y146_R143H]	0.706	0.374	0.685	0.395	0.436	0.393	0.502	0.371	0.331	0.363	0.393	0.611	0.775
0.96	0.772	0.788	CTTIHYNFMGN [TP53_Y234_C238G_YF]	0.73	0.565	0.926	0.478	0.472	0.542	0.699	0.487	0.402	0.532	0.464	0.523	0.876
0.734	0.569	0.747	SGSIHYSCVPR [GLB1_Y57_R59C]	1.06	0.591	1.05	0.54	0.578	0.536	0.898	0.585	0.526	0.517	0.474	0.771	1.15
0.769	2.44	0.795	HGEAYYSEVKP [PAK5_Y182]	1.7	2.27	2.68	3.85	11.2	3.13	1.79	1.8	2.99	11.2	1.96	1.93	1.62

The remaining lines, values behind:

Sequence	SH2 binding enrichment [14]	SH2 binding enrichment [15]	SH2 binding enrichment [16]	phosphorylation enrichment [1]	phosphorylation enrichment [2]	phosphorylation enrichment [3]	phosphorylation enrichment [4]	phosphorylation enrichment [5]	phosphorylation enrichment [6]	phosphorylation enrichment [7]	phosphorylation enrichment [8]	phosphorylation enrichment [9]	phosphorylation enrichment [10]	phosphorylation enrichment [11]	phosphorylation enrichment [12]	phosphorylation enrichment [13]
TLQSMYGCDLG [HLA-B_Y123_V127L]	0.674	0.586	0.591	1.06	0.836	1.18	0.591	0.659	0.491	1.06	0.522	0.597	0.518	0.576	0.858	1.38
TTKAKYKTPTF [PLD2_Y573_YF]	0.778	0.509	0.693	0.416	0.305	0.417	0.4	0.357	0.224	0.551	0.235	0.39	0.374	0.326	0.309	0.476
NFRNTYVNANE [KCNH2_Y475_T473N]	29.8	2.64	1.55	0.577	0.373	0.559	0.466	0.358	0.434	0.467	0.395	0.424	0.404	0.404	0.474	0.677
YSTDYYRVGGH [NTRK2_Y707]	0.787	0.691	0.922	8.96	5.71	2.31	2.55	0.44	14.2	1.03	3.5	2.22	9.44	1.68	11.1	0.732
RDMNACIRPSP [MMAA_Y207_Y207C]	0.969	0.58	0.444	0.581	1.06	1.12	0.798	0.571	0.934	0.565	1.07	0.375	0.62	0.773	1.03	1.29
TPTFPYLLPKS [PLD2_Y580_YF]	1.01	0.587	1.01	0.519	0.44	0.623	0.423	0.382	0.503	0.499	0.464	0.451	0.51	0.501	0.406	0.63
QDGYSYPSRQM [LDLR_Y847]	0.857	6.19	0.732	1.17	0.49	1.98	0.475	0.557	0.88	0.663	0.576	0.734	0.983	0.624	0.87	1.21
